Positions count from the first letter of the chain named.

B1: 1-A2_VH-par_VL-par (antibody, human IgG1, kappa)
heavy chain: not shown
light chain: AIEMTQTPPSLSASVGETVRIRCLASEDIYSGISWYQQKPGKPPTLLIYGASNLESGVPPRFSGSGSGTDYTLTIGGVQAEDAATYYCLGGHSHSTTDLTFGAGTKVEIKTVAAPSVFIFPPSDEQLKSGTASVVCLLNNFYPREAKVQWKVDNALQSGNSQESVTEQDSKDSTYSLSSTLTLSKADYEKHKVYACEVTHQGLSSPVTKSFNRGEC
notes: also called 1-A2_parental (hIgG1)
B2: 4-H3_H5_VL-par (antibody, human IgG1, kappa)
heavy chain: not shown
light chain: B1 light chain with I2Y, E3D, Y30A, H92Y, H94F, T96S, T97N, D98G
notes: also called 4-H3_H5 (hIgG1)
B3: 4-H3_H7_VL-par (antibody, human IgG1, kappa, V domains shown)
VH: QVQLVESGGGVVQPGRSLRLSCAASGIDLTSNAMNWVRQAPGKGLEWIGGIYGHDTSYYAAWAKGRFTISRDNSKNTVYLQMNSLRAEDTATYFCARGFIYFDIWGQGTLVTVSS
VL: AYDMTQTPPSLSASVGETVRIRCLASEDIASGISWYQQKPGKPPTLLIYGASNLESGVPPRFSGSGSGTDYTLTIGGVQAEDAATYYCLGGYSFSSNGLTFGAGTKVEIKT
notes: also called 4-H3_H7 (hIgG1)
B4: 1-A2_H0_VL-par (antibody, human IgG1, kappa, V domains shown)
VH: B3 VH with I27F, D28T, L29F, T30S, I48V, G49A, V78L, T92V, F94Y
VL: B3 VL with Y2I, D3E, A30Y, Y92H, F94H, S96T, N97T, G98D
notes: also called 1-A2_H0 (hIgG1)
B5: 1-A2_H1_VL-par (antibody, human IgG1, kappa, V domains shown)
VH: B3 VH with I48V, G49A, V78L, T92V, F94Y
VL: B3 VL with Y2I, D3E, A30Y, Y92H, F94H, S96T, N97T, G98D
notes: also called 1-A2_H1 (hIgG1)
B6: 4-H3_VH-par_VL-par (antibody, human IgG1, kappa)
heavy chain: not shown
light chain: B1 light chain with I2Y, E3D, Y30A, H92Y, H94F, T96S, T97N, D98G
notes: also called 4-H3_parental (hIgG1)
B7: 1-A2_VH-par_L1 (antibody, human IgG1, kappa, V domains shown)
VH: SQSVEESGGRLVPPGTPLTLTCTVSGIDLTSNAMNWVRQAPGKGLEWIGGIYGHDTSYYAAWAKGRFTISRTSTTVDLKMTRPTTDDTATYFCARGFIYFDIWGTGTLVTISS
VL: DIQMTQSPSSLSASVGDRVTITCLASEDIYSGISWYQQKPGKAPKLLIYGASNLESGVPSRFSGSGSGTDYTLTISSLQPEDFATYYCLGGHSHSTTDLTFGGGTKVEIKT
notes: also called 1-A2_L1 (hIgG1K)
B8: 4-H3_H8_L0 (antibody, human IgG1, kappa, V domains shown)
VH: QQLVESGGGVVQPGRSLRLSCAASGIDLTSNAMNWVRQAPGKGLEWIGGIYGHDTSYYAAWAKGRFTISRDSNTVYLQMNSLRAEDTATYFCARGFIYFDIWGQGTLVTVSS
VL: B7 VL with Y30A, Y71F, H92Y, H94F, T96S, T97N, D98G
notes: humanised, human IgG1 kappa
B9: 4-H3_VH-par_L0 (antibody, human IgG1, kappa, V domains shown)
VH: B7 VH with V4L
VL: B7 VL with Y30A, Y71F, H92Y, H94F, T96S, T97N, D98G
notes: also called 4-H3_L0 (hIgG1K)
B10: 1-A2_H0_L1 (antibody, human IgG1, kappa, V domains shown)
VH: B3 VH with I27F, D28T, L29F, T30S, I48V, G49A, V78L, T92V, F94Y
VL: B7 VL
notes: humanised, human IgG1 kappa
B11: 4-H3_H8_L1 (antibody, human IgG1, kappa, V domains shown)
VH: B8 VH
VL: B7 VL with I2Y, Y30A, H92Y, H94F, T96S, T97N, D98G
notes: humanised, human IgG1 kappa
B12: 1-A2_H2_L0 (antibody, human IgG1, kappa, V domains shown)
VH: B8 VH
VL: B7 VL with Y71F
notes: humanised, human IgG1 kappa
B13: 1-A2_H0_L0 (antibody, human IgG1, kappa, V domains shown)
VH: B3 VH with I27F, D28T, L29F, T30S, I48V, G49A, V78L, T92V, F94Y
VL: B7 VL with Y71F
notes: humanised, human IgG1 kappa
B14: 1-A2_H1_L0 (antibody, human IgG1, kappa, V domains shown)
VH: B3 VH with I48V, G49A, V78L, T92V, F94Y
VL: B7 VL with Y71F
notes: humanised, human IgG1 kappa
B15: 4-H3_VH-par_L1 (antibody, human IgG1, kappa, V domains shown)
VH: B7 VH with V4L
VL: B7 VL with I2Y, Y30A, H92Y, H94F, T96S, T97N, D98G
notes: also called 4-H3_L1 (hIgG1K)
B16: 1-A2_H1_L1 (antibody, human IgG1, kappa, V domains shown)
VH: B3 VH with I48V, G49A, V78L, T92V, F94Y
VL: B7 VL
notes: humanised, human IgG1 kappa
B17: 1-A2_H2_L1 (antibody, human IgG1, kappa, V domains shown)
VH: B8 VH
VL: B7 VL
notes: humanised, human IgG1 kappa
B18: 1-A2_VH-par_L0 (antibody, human IgG1, kappa, V domains shown)
VH: B7 VH
VL: B7 VL with Y71F
notes: also called 1-A2_L0 (hIgG1K)
B19: 4-H3_H8_VL-par (antibody, human IgG1, kappa, V domains shown)
VH: B8 VH
VL: B3 VL
notes: also called 4-H3_H8 (hIgG1)
B20: 4-H3_H6_VL-par rep (antibody, human IgG1, kappa)
heavy chain: not shown
light chain: B1 light chain with I2Y, E3D, Y30A, H92Y, H94F, T96S, T97N, D98G
notes: also called 4-H3_H6 (hIgG1)
B21: 1-A2_H2_VL-par (antibody, human IgG1, kappa, V domains shown)
VH: B8 VH
VL: B3 VL with Y2I, D3E, A30Y, Y92H, F94H, S96T, N97T, G98D
notes: also called 1-A2_H2 (hIgG1)
B22: 1-D5_VH-par_VL-par (antibody, human IgG1, kappa)
heavy chain: not shown
light chain: DIVMTQTPSSVSAAVGDTVTIQCQASQSINSGLAWYQQKPGQPPKRLIYKASTLASGVPSRFRGSGSGTDFTLTISDLECADAATYYCQSYHYISANGATFGGGTEVVVETVAAPSVFIFPPSDEQLKSGTASVVCLLNNFYPREAKVQWKVDNALQSGNSQESVTEQDSKDSTYSLSSTLTLSKADYEKHKVYACEVTHQGLSSPVTKSFNRGEC
notes: also called 1-D5_parental (hIgG1)
B23: 4-H3_H1_VL-par (antibody, human IgG1, kappa)
heavy chain: not shown
light chain: B1 light chain with I2Y, E3D, Y30A, H92Y, H94F, T96S, T97N, D98G
notes: also called 4-H3_H1 (hIgG1)
B24: 4-H3_H2_VL-par (antibody, human IgG1, kappa)
heavy chain: not shown
light chain: B1 light chain with I2Y, E3D, Y30A, H92Y, H94F, T96S, T97N, D98G
notes: also called 4-H3_H2 (hIgG1)
B25: 4-H3_H3_VL-par (antibody, human IgG1, kappa, V domains shown)
VH: B3 VH with T92V, F94Y
VL: B3 VL
notes: also called 4-H3_H3 (hIgG1)
B26: 4-H3_H0_VL-par (antibody, human IgG1, kappa, V domains shown)
VH: B3 VH with I27F, D28T, L29F, T30S, I48V, G49A, V78L, T92V, F94Y
VL: B3 VL
notes: also called 4-H3_H0 (hIgG1)

In one experiment the target is T1, human full-length VWF (human, UniProt P04275 764-2813). The experiment is described as follows: SPR, Biacore T200, antibody captured on Protein A, full-length VWF as analyte, single-cycle kinetics. In general terms: In SPR one partner is held on a chip, and binding of the other changes the refractive index at the surface.
Protocol: (§1) Antibodies were captured on Protein A sensor chip. The system was purged using running buffer (10 mM HEPES pH 7.4, 300 mM NaCl, 3 mM EDTA, 0.05% P20) and a series S Protein A chip was docked in the Biacore T200. The surface was conditioned with 10 mM glycine-HCl pH 1.5 regeneration solution (3 injections). Each antibody was diluted to ˜0.8 μg/ml in running buffer to capture ˜350 RU on flow cells 2, 3 and 4 (flow cell 1 used as in-line reference cell). Single-cycle kinetic analysis of human full-length VWF binding to antibodies was performed using the following parameters:
B1 registered a Kd of 0.000125 nM.
The molecule B2 yielded a Kd of 0.0161 nM, a koff of 4.34e-07 s⁻¹ and a kon of 26900 M⁻¹ s⁻¹.
For B3, in that order: 0.0104 nM, 3.05e-07 s⁻¹ and 29300 M⁻¹ s⁻¹.
In the same order, the values of B4 are 0.0176 nM, 6.18e-07 s⁻¹ and 35100 M⁻¹ s⁻¹.
For B5, in that order: 0.0238 nM, 9.49e-07 s⁻¹ and 39800 M⁻¹ s⁻¹.
B6 showed a Kd of 0.0717 nM.
B7: the dissociation constant (Kd) is 0.00707 nM, the koff worked out at 1.81e-07 s⁻¹ and the kon is 25600 M⁻¹ s⁻¹.
In the same order, the values of B8 are 0.0125 nM, 5.66e-07 s⁻¹ and 45200 M⁻¹ s⁻¹.
In the same order, the values of B9 are 0.00173 nM, 8.46e-08 s⁻¹ and 48800 M⁻¹ s⁻¹.
In the case of B10, the equilibrium dissociation constant (Kd) turned out to be 0.0432 nM, the koff worked out at 2.73e-06 s⁻¹ and the association rate constant (kon) came out at 63200 M⁻¹ s⁻¹.
For B11, in that order: 0.0173 nM, 9.15e-07 s⁻¹ and 52800 M⁻¹ s⁻¹.
In the same order, the values of B12 are 0.0969 nM, 3.5e-06 s⁻¹ and 36100 M⁻¹ s⁻¹.
In the case of B13, the dissociation constant (Kd) amounted to 0.000231 nM, the koff worked out at 2.74e-08 s⁻¹ and the on-rate (kon) came out at 119000 M⁻¹ s⁻¹.
In the same order, the values of B14 are 0.0187 nM, 6.54e-07 s⁻¹ and 34900 M⁻¹ s⁻¹.
For B15, in that order: 0.00143 nM, 1.75e-08 s⁻¹ and 12300 M⁻¹ s⁻¹.
In turn, B16 returned a dissociation constant Kd of 0.00589 nM, a koff of 1.4e-07 s⁻¹ and a kon of 23800 M⁻¹ s⁻¹.
In the same order, the values of B17 are 0.00203 nM, 3.84e-08 s⁻¹ and 19000 M⁻¹ s⁻¹.
For B18, in that order: 0.0125 nM, 7.44e-07 s⁻¹ and 59600 M⁻¹ s⁻¹.
The molecule B19 gave a dissociation constant (Kd) of 0.0109 nM, a dissociation rate constant (koff) of 5.99e-07 s⁻¹ and a kon of 54900 M⁻¹ s⁻¹.
In the same order, the values of B20 are 0.00655 nM, 3.63e-07 s⁻¹ and 55300 M⁻¹ s⁻¹.
On to B21, for which binding was put at a Kd of 0.318 nM, the koff was 7.8e-06 s⁻¹ and the kon worked out at 24500 M⁻¹ s⁻¹.

A further experiment concerns the target T1, human full-length VWF. Described as above. The source holds these as a separate data set.
Protocol: as §1
In the case of B22, the Kd was 0.0223 nM.
As for B23, the Kd was found to be 0.00664 nM, the off-rate (koff) turned out to be 1.87e-07 s⁻¹ and the kon amounted to 28200 M⁻¹ s⁻¹.
Consider B24, for which binding was put at a Kd of 0.0194 nM, the dissociation rate constant (koff) was found to be 1.75e-06 s⁻¹ and the on-rate (kon) worked out at 90000 M⁻¹ s⁻¹.
For B25, in that order: 0.0294 nM, 1.59e-06 s⁻¹ and 54200 M⁻¹ s⁻¹.
For B26, in that order: 0.0131 nM, 2.89e-07 s⁻¹ and 22100 M⁻¹ s⁻¹.

The term Kd denotes the free concentration of one partner at which half of the binding sites on the other are occupied at equilibrium, for simple one-to-one binding. Read a low Kd as tighter binding. Usually koff stands for the rate constant with which the complex falls apart. Usually kon stands for a measure of how fast the partners come together.

The values are drawn from US20240228660A1 (IP2IPO INNOVATIONS, published 2024).
